Percent of parent (% Protein Relative to WT) and SILAC H/L ratio (rpn13Δ proteasomes, heavy, over rpn13Δ rpn1-D517A proteasomes, light) data for four molecules are collected here from paper PMC3126750.

The target in one assay is Ddi1 (UniProt P40087). In words: anti-Flag affinity purification of 26S proteasome, immunoblot densitometry. Particulars: no detergent in binding; normalized to Rpn11FLAG; parent: est. 100; read off a plot. On the technique in general: In western blotting, separated proteins are transferred to a membrane and probed.
For a further assay, the target named is Dsk2 (UniProt P48510). Described as above. Particulars: no detergent in binding; normalized to Rpn11FLAG; parent: est. 100; read off a plot.
In a further assay the target is Rad23 (UniProt P32628). The assay is described as above. The settings on record: no detergent in binding; normalized to Rpn11FLAG; parent: est. 100; read off a plot.
In another assay the target is Ubp6 (UniProt P43593). The assay is described as above. The settings on record: no detergent in binding; normalized to Rpn11FLAG; parent: est. 100; read off a plot.
Assay [1] addresses 26S proteasome from rpn13Δ cells (Rpn11-Flag) (S. cerevisiae) (UniProt P38764). The assay is described as follows: affinity purification with mass spectrometry; SILAC: rpn13Δ cells heavy, rpn13Δ rpn1-D517A cells light, mixed 1:1 before lysis; proteasomes purified on anti-Flag resin, eluted in 8 M urea.
Sequence of UniProt P38764 (P38764 whole entry, looked up, stated change not applied): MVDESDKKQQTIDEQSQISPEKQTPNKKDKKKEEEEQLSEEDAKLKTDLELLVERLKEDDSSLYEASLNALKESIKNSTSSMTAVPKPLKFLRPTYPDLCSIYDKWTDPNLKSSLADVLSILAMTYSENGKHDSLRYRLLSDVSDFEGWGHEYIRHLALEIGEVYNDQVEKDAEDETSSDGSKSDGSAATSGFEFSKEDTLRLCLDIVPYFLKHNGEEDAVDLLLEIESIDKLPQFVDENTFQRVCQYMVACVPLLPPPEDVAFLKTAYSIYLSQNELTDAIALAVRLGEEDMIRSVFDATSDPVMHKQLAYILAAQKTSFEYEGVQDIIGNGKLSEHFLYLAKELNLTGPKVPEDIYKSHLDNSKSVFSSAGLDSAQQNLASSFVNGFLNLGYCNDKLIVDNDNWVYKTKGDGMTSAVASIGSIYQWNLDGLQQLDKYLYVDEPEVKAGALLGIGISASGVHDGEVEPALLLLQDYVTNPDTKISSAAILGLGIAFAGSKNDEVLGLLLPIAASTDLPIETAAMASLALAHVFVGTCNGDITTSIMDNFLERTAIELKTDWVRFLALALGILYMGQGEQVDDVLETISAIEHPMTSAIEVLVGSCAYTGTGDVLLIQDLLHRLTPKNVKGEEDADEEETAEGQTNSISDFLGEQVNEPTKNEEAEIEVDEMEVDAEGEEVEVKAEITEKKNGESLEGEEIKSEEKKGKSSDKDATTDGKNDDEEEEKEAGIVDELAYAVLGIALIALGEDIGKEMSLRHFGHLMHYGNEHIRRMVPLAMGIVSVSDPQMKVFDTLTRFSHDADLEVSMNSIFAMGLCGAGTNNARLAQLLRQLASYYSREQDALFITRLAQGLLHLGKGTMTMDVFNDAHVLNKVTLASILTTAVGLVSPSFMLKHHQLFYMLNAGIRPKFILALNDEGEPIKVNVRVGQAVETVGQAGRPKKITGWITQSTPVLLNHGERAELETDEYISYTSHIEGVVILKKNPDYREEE

Sequence of UniProt P48510 (P48510 whole entry, looked up): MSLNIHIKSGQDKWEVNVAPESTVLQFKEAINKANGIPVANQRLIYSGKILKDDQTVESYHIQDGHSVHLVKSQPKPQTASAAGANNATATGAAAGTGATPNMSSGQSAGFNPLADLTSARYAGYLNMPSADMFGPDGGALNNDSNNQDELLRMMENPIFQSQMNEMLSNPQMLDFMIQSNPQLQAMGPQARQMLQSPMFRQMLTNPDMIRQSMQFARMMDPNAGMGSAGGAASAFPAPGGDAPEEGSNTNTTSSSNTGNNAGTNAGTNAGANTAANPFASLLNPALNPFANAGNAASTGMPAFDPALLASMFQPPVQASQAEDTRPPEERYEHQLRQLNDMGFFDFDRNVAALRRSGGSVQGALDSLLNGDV
Sequence of UniProt P40087 (P40087 whole entry, looked up): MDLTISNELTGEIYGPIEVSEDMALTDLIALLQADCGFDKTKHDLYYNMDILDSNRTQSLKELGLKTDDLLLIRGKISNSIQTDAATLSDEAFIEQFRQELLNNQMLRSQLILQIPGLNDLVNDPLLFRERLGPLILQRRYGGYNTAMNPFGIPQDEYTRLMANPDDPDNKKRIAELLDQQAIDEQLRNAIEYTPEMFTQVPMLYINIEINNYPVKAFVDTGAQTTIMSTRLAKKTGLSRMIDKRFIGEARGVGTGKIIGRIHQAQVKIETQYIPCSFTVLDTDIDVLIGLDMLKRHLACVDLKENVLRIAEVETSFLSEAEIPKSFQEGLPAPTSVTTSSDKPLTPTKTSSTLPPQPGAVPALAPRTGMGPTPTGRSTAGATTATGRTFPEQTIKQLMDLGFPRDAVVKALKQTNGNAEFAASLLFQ

Regarding “26S proteasome from rpn13Δ cells (Rpn11-Flag) (from UniProt P38764;P43588) K484A”, the percent of parent (% Protein Relative to WT) was 80 with Ddi1, 86 with Dsk2, 95 with Rad23 and 110 with Ubp6.
For the molecule “Ubp6 (from UniProt P43593 1-499) (enzyme)”, the SILAC H/L ratio (rpn13Δ proteasomes, heavy, over rpn13Δ rpn1-D517A proteasomes, light) in assay [1] worked out at 0.98.
As for “26S proteasome from rpn13Δ cells (Rpn11-Flag) (from UniProt P38764;P43588) D517A”, the percent of parent (% Protein Relative to WT) in the assay with Ddi1 stood at 29; with Dsk2, 61; with Rad23 it was 76; with Ubp6, 110.

B1: Rad23 (natural protein)
chain: MVSLTFKNFKKEKVPLDLEPSNTILETKTKLAQSISCEESQIKLIYSGKVLQDSKTVSECGLKDGDQVVFMVSQKKSTKTKVTEPPIAPESATTPGRENSTEASPSTDASAAPAATAPEGSQPQEEQTATTERTESASTPGFVVGTERNETIERIMEMGYQREEVERALRAAFNNPDRAVEYLLMGIPENLRQPEPQQQTAAAAEQPSTAATTAEQPAEDDLFAQAAQGGNASSGALGTTGGATDAAQGGPPGSIGLTVEDLLSLRQVVSGNPEALAPLLENISARYPQLREHIMANPEVFVSMLLEAVGDNMQDVMEGADDMVEGEDIEVTGEAAAAGLGQGEGEGSFQVDYTPEDDQAISRLCELGFERDLVIQVYFACDKNEEAAANILFSDHAD
With B1, the SILAC H/L ratio (rpn13Δ proteasomes, heavy, over rpn13Δ rpn1-D517A proteasomes, light) in assay [1] came out at 0.9.
